Measured values: the Immune Epitope Database (IEDB)

What was measured:
HLA-A*68:02 = assay: IEDB peptide-MHC binding, cellular MHC/competitive/fluorescence; ≥ and ≤ were set here for values at or beyond the usual limits of such assays
HLA-A*02:03 = assay: IEDB peptide-MHC binding, purified MHC/competitive/radioactivity; ≥ and ≤ were set here for values at or beyond the usual limits of such assays
HLA-A*02:01 [1] = assay: as above
HLA-A*02:06 = assay: as above
HLA-A*02:02 = assay: as above
HLA-A*02:01 [2] = assay: IEDB peptide-MHC binding, cellular MHC/competitive/fluorescence; ≥ and ≤ were set here for values at or beyond the usual limits of such assays; conditions: source organism: Vaccinia virus WR
[3] = source organism: Vaccinia virus WR
[4] = source organism: Hepacivirus hominis
[5] = source organism: Mammarenavirus choriomeningitidis
[6] = source organism: Mammarenavirus whitewaterense
[7] = source organism: Mammarenavirus lassaense

Sequence | IC50 (HLA-A*68:02; [3]) [nM] | IC50 (HLA-A*02:03; [3]) [nM] | IC50 (HLA-A*02:01 [1]; [3]) [nM] | IC50 (HLA-A*02:06; [3]) [nM] | IC50 (HLA-A*02:02; [3]) [nM] | other results
YALCTLLHL |  |  |  |  |  | IC50 (HLA-A*68:02; source organism: SARS-CoV1): 5620 nM; IC50 (HLA-A*02:03; source organism: SARS-CoV1): 768 nM; IC50 (HLA-A*02:01 [1]; source organism: SARS-CoV1): 8.7 nM; IC50 (HLA-A*02:06; source organism: SARS-CoV1): 1.5 nM; IC50 (HLA-A*02:02; source organism: SARS-CoV1): 1320 nM
ILFQNNDINA | 9980 | 407 | 549 | 3180 | 23 | 
LLLLSVGVGI |  |  |  |  |  | IC50 (HLA-A*68:02; [4]): 52600 nM; IC50 (HLA-A*02:03; [4]): 605 nM; IC50 (HLA-A*02:01 [1]; [4]): 764 nM; IC50 (HLA-A*02:06; [4]): 714 nM; IC50 (HLA-A*02:02; [4]): 2570 nM
KIKQTGINNV | 35900 | 3.1 |  | 2550 | 237 | IC50 (HLA-A*02:01 [2]): 7300 nM
FLDWIKDIM | 26800 | 297 | 19 | 162 | 0.78 | 
LSAEELMSL |  |  |  |  |  | IC50 (HLA-A*68:02; [5]): 5820 nM; IC50 (HLA-A*02:03; [5]): 706 nM; IC50 (HLA-A*02:01 [1]; [5]): 2210 nM; IC50 (HLA-A*02:06; [5]): 66 nM; IC50 (HLA-A*02:02; [5]): 65 nM
GLFDINVIGL | 7080 | 1.4 | 13 | 240 | 0.16 | 
KVTVPTNDHI | 6590 | 1240 |  | 3600 | 4720 | IC50 (HLA-A*02:01 [2]): 13200 nM
RLIVYPDLGV |  |  |  |  |  | IC50 (HLA-A*68:02; [4]): 6680 nM; IC50 (HLA-A*02:03; [4]): 15 nM; IC50 (HLA-A*02:01 [1]; [4]): 43 nM; IC50 (HLA-A*02:06; [4]): 129 nM; IC50 (HLA-A*02:02; [4]): 1.9 nM
FLFLAWIMLL |  |  |  |  |  | IC50 (HLA-A*68:02; source organism: SARS-CoV1): 6180 nM; IC50 (HLA-A*02:03; source organism: SARS-CoV1): 56 nM; IC50 (HLA-A*02:01 [1]; source organism: SARS-CoV1): 80 nM; IC50 (HLA-A*02:06; source organism: SARS-CoV1): 1010 nM; IC50 (HLA-A*02:02; source organism: SARS-CoV1): 19 nM
FLLRGPFEAS |  |  |  |  |  | IC50 (HLA-A*68:02; [6]): 38900 nM; IC50 (HLA-A*02:03; [6]): 84 nM; IC50 (HLA-A*02:01 [1]; [6]): 109 nM; IC50 (HLA-A*02:06; [6]): 70 nM; IC50 (HLA-A*02:02; [6]): 27 nM
LQISRVNDL | ≥ 70000 | 11 | 1700 | 229 | 90 | 
RVLYDEFVT | 28000 | 1410 |  | 1720 | 2170 | IC50 (HLA-A*02:01 [2]): 13500 nM
DLLFNEKLKV | 9970 | 317 | 149 | 2020 | 357 | 
RALKAYFTA | 11400 | 204 | 158 | 14 | 2350 | 
IVSHLRASTT | 60600 | 111 | 896 | 173 | 139 | 
KLWAQCVQL |  |  |  |  |  | IC50 (HLA-A*68:02; source organism: SARS-CoV1): 23100 nM; IC50 (HLA-A*02:03; source organism: SARS-CoV1): 194 nM; IC50 (HLA-A*02:01 [1]; source organism: SARS-CoV1): 4.7 nM; IC50 (HLA-A*02:06; source organism: SARS-CoV1): 9.5 nM; IC50 (HLA-A*02:02; source organism: SARS-CoV1): 13 nM

Sequence | IC50 (HLA-A*68:02; [3]) [nM] | IC50 (HLA-A*02:03; [3]) [nM] | IC50 (HLA-A*02:01 [1]; [3]) [nM] | IC50 (HLA-A*02:06; [3]) [nM] | IC50 (HLA-A*02:02; [3]) [nM] | other results
AIYVFCISL |  |  |  |  |  | IC50 (HLA-A*68:02; source organism: SARS-CoV1): 5470 nM; IC50 (HLA-A*02:03; source organism: SARS-CoV1): 201 nM; IC50 (HLA-A*02:01 [1]; source organism: SARS-CoV1): 119 nM; IC50 (HLA-A*02:06; source organism: SARS-CoV1): 48 nM; IC50 (HLA-A*02:02; source organism: SARS-CoV1): 143 nM
FMLCLLLLSV |  |  |  |  |  | IC50 (HLA-A*68:02; [4]): 28100 nM; IC50 (HLA-A*02:03; [4]): 315 nM; IC50 (HLA-A*02:01 [1]; [4]): 149 nM; IC50 (HLA-A*02:06; [4]): 194 nM; IC50 (HLA-A*02:02; [4]): 472 nM
AMIHKTYIDV | 21200 | 27 | 173 | 206 | 335 | 
FMEEEIKAEM | 16800 | 3070 | 86 | 865 | 1030 | 
LQWDDNIPEL | 42700 | 712 |  | 34 | 180 | IC50 (HLA-A*02:01 [2]): 9520 nM
LLNMRDLIVT | 33200 | 557 | 2020 | 707 | 1420 | 
RMPTDMLKL | ≥ 70000 | 106 | 1840 | 678 | 950 | 
LLEQLIENI | ≥ 70000 | 1960 | 1570 | 539 | 702 | 
LMLKATLLCV |  |  |  |  |  | IC50 (HLA-A*68:02; source organism: SARS-CoV1): 8860 nM; IC50 (HLA-A*02:03; source organism: SARS-CoV1): 21 nM; IC50 (HLA-A*02:01 [1]; source organism: SARS-CoV1): 19 nM; IC50 (HLA-A*02:06; source organism: SARS-CoV1): 63 nM; IC50 (HLA-A*02:02; source organism: SARS-CoV1): 3.4 nM
MLCLLLLSV |  |  |  |  |  | IC50 (HLA-A*68:02; [4]): 15400 nM; IC50 (HLA-A*02:03; [4]): 263 nM; IC50 (HLA-A*02:01 [1]; [4]): 142 nM; IC50 (HLA-A*02:06; [4]): 326 nM; IC50 (HLA-A*02:02; [4]): 210 nM
AVTLNRIKIA | 11000 | 1290 | 1250 | 2290 | 1720 | 
VMFNGVTFST |  |  |  |  |  | IC50 (HLA-A*68:02; source organism: SARS-CoV1): 13700 nM; IC50 (HLA-A*02:03; source organism: SARS-CoV1): 75 nM; IC50 (HLA-A*02:01 [1]; source organism: SARS-CoV1): 8.5 nM; IC50 (HLA-A*02:06; source organism: SARS-CoV1): 131 nM; IC50 (HLA-A*02:02; source organism: SARS-CoV1): 0.69 nM
YLLGLSAIM |  |  |  |  |  | IC50 (HLA-A*68:02; source organism: SARS-CoV1): 12100 nM; IC50 (HLA-A*02:03; source organism: SARS-CoV1): 37 nM; IC50 (HLA-A*02:01 [1]; source organism: SARS-CoV1): 1.1 nM; IC50 (HLA-A*02:06; source organism: SARS-CoV1): 3.2 nM; IC50 (HLA-A*02:02; source organism: SARS-CoV1): 1.7 nM
LNISGYNFSL |  |  |  |  |  | IC50 (HLA-A*68:02; [7]): 6000 nM; IC50 (HLA-A*02:03; [7]): 4550 nM; IC50 (HLA-A*02:01 [1]; [7]): 375 nM; IC50 (HLA-A*02:06; [7]): 421 nM; IC50 (HLA-A*02:02; [7]): 16 nM
ILSLETVKM | 9700 | 12 | 204 | 280 | 4.8 | 
QIGGEAIFLI | ≥ 70000 | 0.2 | 383 | 15 | 8.2 | 
